# Reference: patent CN113307874A (GUANGZHOU EXCELMAB BIOMEDICAL TECH CO LTD, dated 2021)
# Positions count from the first letter of the chain named.
# T1: 过表达人LAG3抗原的Jurkat/LAG3细胞表面的人LAG3 (human, UniProt P18627 23-525)
# T1 construct: whole, on cells; also called 过表达人LAG3的Jurkat细胞
# T1 sequence (looked up): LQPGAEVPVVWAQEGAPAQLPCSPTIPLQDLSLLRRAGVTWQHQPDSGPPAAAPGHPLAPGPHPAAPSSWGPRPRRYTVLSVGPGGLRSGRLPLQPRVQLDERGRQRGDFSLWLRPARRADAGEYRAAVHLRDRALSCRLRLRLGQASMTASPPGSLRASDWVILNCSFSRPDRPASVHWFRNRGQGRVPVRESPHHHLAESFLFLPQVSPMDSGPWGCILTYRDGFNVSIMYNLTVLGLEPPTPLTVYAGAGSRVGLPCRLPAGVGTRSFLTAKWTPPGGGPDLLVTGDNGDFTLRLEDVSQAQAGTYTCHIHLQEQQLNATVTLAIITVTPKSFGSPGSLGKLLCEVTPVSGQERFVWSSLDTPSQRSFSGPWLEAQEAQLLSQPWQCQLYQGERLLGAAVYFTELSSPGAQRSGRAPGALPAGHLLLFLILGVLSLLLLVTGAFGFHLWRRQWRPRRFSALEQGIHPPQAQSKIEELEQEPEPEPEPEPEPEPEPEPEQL
# T2: 人LAG3抗原 (ACRO, Cat.LA3-H5222) (human, UniProt P18627 23-450)
# T2 construct: Bought protein; also called human LAG3 antigen
# T2 sequence (looked up): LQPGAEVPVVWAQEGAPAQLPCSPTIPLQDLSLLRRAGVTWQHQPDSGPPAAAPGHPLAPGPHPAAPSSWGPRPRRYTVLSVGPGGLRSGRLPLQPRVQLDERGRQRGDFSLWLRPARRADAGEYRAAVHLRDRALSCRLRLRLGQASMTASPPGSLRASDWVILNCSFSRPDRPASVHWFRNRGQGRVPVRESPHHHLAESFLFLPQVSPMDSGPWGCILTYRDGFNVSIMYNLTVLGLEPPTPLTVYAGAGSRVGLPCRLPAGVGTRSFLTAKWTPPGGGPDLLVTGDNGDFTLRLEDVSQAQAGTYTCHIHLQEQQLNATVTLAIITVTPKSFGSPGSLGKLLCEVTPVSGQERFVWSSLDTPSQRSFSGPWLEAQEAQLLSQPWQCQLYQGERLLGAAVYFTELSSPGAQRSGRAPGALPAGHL
# B1: 鼠源抗LAG3抗体 mL42 (antibody, V domains shown)
# VH: EVQLQQSGAELVRPGASVKLSCKALGYTFTDYEVHWLKQTPVRGLEWIGAIHPGSGGAAYNQKVKGKATLTADKSSSTAYMELSVLTSEDSAVYYCTSYGWNDWGQGTTLTVSS
# VL: DILMNQSHKFMSTSVGDRVSIACKASQDVSTAVAWYQQKPGQSPKLLISWASTRHTGVPDRFAGSGSGTDFTLTINNVQSEDLADYFCQQYSSYPYTFGGGTKLELER
# notes: detected with anti-human IgG secondary antibodies
# B2: 人源化抗体 hmL42 (antibody, V domains shown)
# VH: QVQLVQSGAEVKKPGASVKVSCKASGYTFTDYEVHWVKQAPGQGLEWMGAIHPGSGGAAYNQKVKGKVTMTADTSISTAYMELSRLRSDDTAVYYCTSYGWNDWGQGTTVTVS
# VL: DIQLTQSPSFLSASVGDRVTITCKASQDVSTAVAWYQQKPGKSPKLLISWASTRHTGVPDRFAGSGSGTDFTLTISSLQPEDFATYYCQQYSSYPYTFGQGTKLEIK
# B3: hmL42人源化亲和力成熟变体 R3C4 (antibody, V domains shown)
# VH: B2 VH
# VL: B2 VL with S92V, S93A, Y94F, P95S, Y96F
# B4: hmL42人源化亲和力成熟变体 R3B5 (antibody, V domains shown)
# VH: B2 VH
# VL: B2 VL with S92V, S93R, Y94F, P95S
# B5: hmL42人源化亲和力成熟变体 R2B11 (antibody, V domains shown)
# VH: B2 VH
# VL: B2 VL with S92V, S93V, Y94F, P95S, T97S
# B6: hmL42人源化亲和力成熟变体 R2C9 (antibody, V domains shown)
# VH: B2 VH
# VL: B2 VL with Q89M, Q90S, S92V, S93V, Y94F
# B7: hmL42人源化亲和力成熟变体 R3G5 (antibody, V domains shown)
# VH: B2 VH
# VL: B2 VL with S92V, S93M, Y94F, Y96F
# B8: hmL42人源化亲和力成熟变体 R2G10 (antibody, V domains shown)
# VH: B2 VH
# VL: B2 VL with S92W, S93E, Y94F, P95S, Y96F
# B9: hmL42人源化亲和力成熟变体 R3G6 (antibody, V domains shown)
# VH: B2 VH
# VL: B2 VL with S92V, S93D, Y94F, Y96F, T97K
# B10: hmL42人源化亲和力成熟变体 R2E8 (antibody, V domains shown)
# VH: B2 VH
# VL: B2 VL with Q89H, S92I, S93M, Y94F
# B11: hmL42人源化亲和力成熟变体 R2 (antibody, V domains shown)
# VH: B2 VH
# VL: B2 VL with Q89M, Q90G, S92L, S93F, Y94F
# B12: hmL42人源化亲和力成熟变体 R3H5 (antibody, V domains shown)
# VH: B2 VH
# VL: B2 VL with S92W, S93V, Y94F, P95S, Y96F
# B13: hmL42人源化亲和力成熟变体 R2A8 (antibody, V domains shown)
# VH: B2 VH
# VL: B2 VL with Q89M, Q90G, S92W, S93V, Y94F
# B14: hmL42人源化亲和力成熟变体 R3C5 (antibody, V domains shown)
# VH: B2 VH
# VL: B2 VL with S92W, S93V, Y94W, P95D, T97V
# B15: hmL42人源化亲和力成熟变体 R3G4 (antibody, V domains shown)
# VH: B2 VH
# VL: B2 VL with S92I, S93D, Y94F, Y96F, T97V
# B16: hmL42人源化亲和力成熟变体 R3H9 (antibody, V domains shown)
# VH: B2 VH
# VL: B2 VL with S92V, S93D, Y94F
# B17: hmL42人源化亲和力成熟变体 R3D4 (antibody, V domains shown)
# VH: B2 VH
# VL: B2 VL with S92N, S93V, Y94F, P95A, Y96F
# B18: hmL42人源化亲和力成熟变体 R2D12 (antibody, V domains shown)
# VH: B2 VH
# VL: B2 VL with S92M, Y94F, P95A, Y96F
# B19: hmL42人源化亲和力成熟变体 R3B6 (antibody, V domains shown)
# VH: B2 VH
# VL: B2 VL with S92L, Y94F, Y96F, T97M
# B20: hmL42人源化亲和力成熟变体 R2H11 (antibody, V domains shown)
# VH: B2 VH
# VL: B2 VL with S92Y, Y94W, P95S
# Target: T1, 过表达人LAG3抗原的Jurkat/LAG3细胞表面的人LAG3
# Assay: indirect flow cytometry on Jurkat/LAG3 cells
row,binding result,Binder
1,binds,B1
2,binds,B2

# Target: T2, 人LAG3抗原 (ACRO, Cat.LA3-H5222)
# Assay: indirect ELISA, coated human LAG3
row,EC50 [µg/mL],Binder
1,0.248,B3
2,0.184,B4
3,0.244,B5
4,0.221,B6
5,0.138,B7
6,0.16,B8
7,0.206,B9
8,0.204,B10
9,0.202,B11
10,0.147,B12
11,0.132,B13
12,0.437,B14
13,0.175,B15
14,0.183,B16
15,0.112,B17
16,0.119,B18
17,0.216,B19
18,0.382,B20

# Target: T2, 人LAG3抗原 (ACRO, Cat.LA3-H5222)
# Assay: indirect ELISA, coated human LAG3
# Remark: another data set of the same source
row,binding result,Binder
1,binds,B1
2,binds,B2
